In patent US20250154261A1 (published 2025) one finds koff, Kd and kon data, which are given here for 2 molecules.

The koff is the first-order rate constant of dissociation. One may read the Kd as the free concentration of one partner at which half of the binding sites on the other are occupied at equilibrium, for simple one-to-one binding. High values mean lower affinity, low ones higher affinity. As usually defined, the kon is the second-order rate constant of association. Read a high kon as fast association.

Read-outs that look alike come from different tables or passages of the source.

Holding throughout (assay): SPR captured Fab
The target of experiment [1] is T1, V domain of human CD33 (human, UniProt P20138 18-139, limits assumed).
T1 construct: Whole entry named; also called Human CD33 V domain
Method: (§1) Kinetics and affinity of a series of Fab fragments of anti-CD33 antibodies with different CD33 variants (human CD33 ECD, cyno CD33 ECD, V-domain of human CD33, C-domain or human CD33 and selected CD33 SNPs) were assessed by surface plasmon resonance using Biacore 8K instrument (GE Healthcare). Anti-Fab antibody was immobilized on a CM5 chip using standard amine coupling chemistry. CD33 FABs were captured on the anti-Fab chip at a density of ˜100 RU. Solutions containing different concentrations of soluble monomeric CD33 or its domains were injected over the captured FABs and control surfaces at 30 μl/min at 37° C. Surfaces were regenerated between cycles by quick injection of 10 mM glycine, pH 1.8. To obtain kinetic rate constants double-referenced data were fit to a 1:1 interaction model using Biacore 8K Evaluation software (GE Healthcare). The equilibrium binding constant KD was determined by the ratio of binding rate constants kd/kₐ.

Experiment [2] deals with Human CD33 R69G (human, UniProt P20138 18-259).
Experiment [3] concerns the target T1, V domain of human CD33. This is another data set of the same source.
Method: as §1
In experiment [4] the target is Human CD33 S128N (human, UniProt P20138 18-259).

B1: ADI-11776 Fab (Fab, V domains shown)
VH: EVQLLESGGGLVQPGGSLRLSCAASGFTFSKYTMSWVRQAPGKGLEWVSAIVGSGESTYFADSVKGRFTISRDNSKNTLYLQMNSLRAEDTAVYYCAREGGPYYDSSGYFVYYGMDVWGQGTTVTVSS
VL: DIQMTQSPSTLSASVGDRVTITCRASQSISSWLAWYQQKPGKAPKLLIYKASSLESGVPSRFSGSGSGTEFTLTISSLQPDDFATYYCQQYDDLPTFGGGTKVEIK
notes: Fab fragment; also called Ab3; H76
Consider B1, for which the dissociation rate constant (koff) in experiment [1] was found to be 0.0143 s⁻¹; in experiment [2], 0.000426 s⁻¹; in experiment [3], 0.0143 s⁻¹. For the same molecule, binding in experiment [2] was characterised by a dissociation constant (Kd) of 0.22 nM. The molecule further registered an association rate constant (kon) in experiment [2] of 1.98e+06 M⁻¹ s⁻¹.

B2: ADI-11826 Fab (Fab, V domains shown)
VH: EVQLVESGGGLVQPGGSLRLSCAASGFTFPGYWMSWVRQAPGKGLEWVANINQDGSEVYYVDSVKGRFTISRDNAKNSLYLQMNSLRAEDTAVYYCAREANYYGNVGDDYWGQGTLVTVSS
VL: DIQMTQSPSSLSASVGDRVTITCRASQSIYNYLNWYQQKPGKAPKLLIYAASSTQSGVPSRFSGSGSGTDFTLTISSLQPEDFATYYCQQAFHVPITFGGGTKVEIK
notes: Fab fragment; also called Ab26
On to B2, for which the dissociation rate constant (koff) in experiment [1] came to 0.00225 s⁻¹; in experiment [4], 0.00574 s⁻¹; in experiment [2], 0.00723 s⁻¹; in experiment [3], 0.00225 s⁻¹. In addition, the dissociation constant (Kd) in experiment [4] was found to be 2.65 nM; in experiment [2] it was 3.83 nM. In addition, the on-rate (kon) in experiment [4] turned out to be 2.17e+06 M⁻¹ s⁻¹; in experiment [2] it was 1.89e+06 M⁻¹ s⁻¹.
